Laboratory results taken from the supplement of paper PMC10724198.
± gives the standard deviation of the averaged measurements.

System: Saccharomyces cerevisiae
Assay: protein stability index of tFT-peptide fusion (C-terminal peptide) (PSI (0-1 scale)); higher = more stable (slower turnover)
Conditions: genetic background: das1 deletion; temperature: 37 C
Experimental: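 MPS profiling in S. cerevisiae of the tFT-X12 degron library: putative degron peptides plus stable controls, 12 aa, fused to the C-terminus of a sfGFP-mCherry timer. Cells are FACS-sorted into 8 mCherry/sfGFP bins and deep-sequenced. PSI runs from 0 (unstable) to 1 (stable). Backgrounds are wild type, das1Δ and doa10Δ at 30 °C, and wild type, das1Δ, cdc34-1 and cdc53-1 at 37 °C; 2-3 technical replicates each.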
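Note: PSI is a weighted mean of sequencing reads over stability bins, variants kept only with over 10 reads, mCherry proximal and sfGFP distal, peptide attached via GGGS linker.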

| Sequence | protein stability index |
| --- | --- |
| FCSLLVLLFFGV | 0.473 ± 0.0052 |
| FELSVSVFQSVV | 0.3368 ± 0.002 |
| FERVEYEVLGIG | 0.449 ± 0.017 |
| FFASAAVHLVTC | 0.559 ± 0.014 |
| FFLLLVGFSVLG | 0.421 ± 0.024 |
| FFLLTCFLLPSV | 0.526 ± 0.014 |
| FFLSFRLFSILL | 0.413 ± 0.014 |
| FFLVILSWWVGE | 0.345 ± 0.028 |
| FFMLWCRVLLRL | 0.278 ± 0.0028 |
| FFVFPFGLLFLS | 0.583 ± 0.011 |
| FFVKGFRLLVFQ | 0.573 ± 0.014 |
| FIGVLVYICREG | 0.44 ± 0.024 |
| FITFLVFVGFFL | 0.495 ± 0.026 |
| FKKIKGKIEKKN | 0.726 ± 0.05 |
| FKWVSRIRLLDA | 0.483 ± 0.0055 |
| FKYRVPLVGVVK | 0.43316 ± 0.00012 |
| FLDYLLFIFFFF | 0.522 ± 0.0072 |
| FLFQYLCIISSL | 0.233 ± 0.023 |
| FLGPMRVLVSSV | 0.6003 ± 0.0019 |
| FLLCRVFVLLRS | 0.215 ± 0.0095 |
| FLLPWLRPVFFF | 0.69 ± 0.0074 |
| FLLVGLLIVGCG | 0.349 ± 0.018 |
| FLSRVVLVVLLV | 0.43 ± 0.02 |
| FLVIILFFLYMR | 0.232 ± 0.023 |
| FLYSVLLICKFI | 0.389 ± 0.013 |
| FMANRYICQKTL | 0.727 ± 0.01 |

| Sequence | protein stability index |
| --- | --- |
| FPCRNFMVFFCF | 0.505 ± 0.0097 |
| FPFPLSSFLLLY | 0.516 ± 0.011 |
| FRSMFLFLNLLF | 0.73 ± 0.02 |
| FSFEGVLVPLLV | 0.4113 ± 0.00044 |
| FSFFLYFFLLLF | 0.402 ± 0.016 |
| FSGRYFLLFRFL | 0.389 ± 0.0091 |
| FSLLTWPFVFLV | 0.346 ± 0.037 |
| FVCWGSLILCGG | 0.29 ± 0.0062 |
| FVFAMSECIVLS | 0.393 ± 0.0046 |
| FVLWLIYVDLFF | 0.342 ± 0.015 |
| FVSHRRFSLFLY | 0.726 ± 0.046 |
| FVVLVFMLGSVC | 0.454 ± 0.044 |
| FVVVGLGLLCLA | 0.569 ± 0.0068 |
| FVWVVRMLVFVP | 0.383 ± 0.023 |
| FWHGRCPGLYLV | 0.7263 ± 0.0042 |
| FYIRFYVYSWLF | 0.492 ± 0.0077 |
| FYLSSCFLFLRF | 0.33618 ± 0.0003 |
| GAVRRWGGVSFV | 0.707 ± 0.032 |
| GDLEFCCLIIVL | 0.5755 ± 0.005 |
| GELPGELYKFWL | 0.7558 ± 0.0025 |
| GFFLLSFLFFVR | 0.393 ± 0.034 |
| GFGDKVPWRWVI | 0.7816 ± 0.0045 |
| GFSVFSHSVWVR | 0.271 ± 0.012 |
| GGICVVAYWRLA | 0.564 ± 0.01 |
| GGMGLWCCVSVG | 0.68341 ± 0.00034 |
| GGRSLYAILCAV | 0.4669 ± 0.0034 |

| Sequence | protein stability index |
| --- | --- |
| GGSLWLVHLKTI | 0.718 ± 0.025 |
| GGTFWDGLVLVH | 0.484 ± 0.0082 |
| GGYGAGLRSPLF | 0.741 ± 0.015 |
| GINHLSLKLRLF | 0.7423 ± 0.0037 |
| GIVSGEGAVGVG | 0.5212 ± 0.0039 |
| GIVYFDQWISVS | 0.571 ± 0.016 |
| GLACNPQLLRWT | 0.7437 ± 0.0035 |
| GLFGFASPPPPS | 0.749 ± 0.0081 |
| GLLAEPALLLLS | 0.724 ± 0.023 |
| GLLLLGIRLKWG | 0.363 ± 0.026 |
| GLLLRLRNLFCM | 0.851 ± 0.028 |
| GLVVVVRLQYSP | 0.458 ± 0.011 |
| GLYFFVVRIFKV | 0.437 ± 0.013 |
| GPGTWLFCFVRF | 0.602 ± 0.0065 |
| GQFFRCWRRRLC | 0.72 ± 0.022 |
| GRGLRVCWVWSG | 0.7428 ± 0.0054 |
| GRHRRIRYVKTS | 0.744 ± 0.028 |
| GSLFANYNLKLF | 0.771 ± 0.033 |
| GSVHLTKERHLV | 0.7436 ± 0.0024 |
| GVAILFTFFRLL | 0.612 ± 0.02 |
| GVGHAWHYFCVC | 0.74764 ± 0.00017 |
| GVLIFLSFQPIA | 0.599 ± 0.0088 |
| GVLRMAPGRVMC | 0.702 ± 0.016 |
| GVQFSVKWVKLG | 0.734 ± 0.0015 |
| GVSLQLHVAVLI | 0.542 ± 0.056 |
| GVSLRVFVVSVC | 0.316 ± 0.0044 |

Same assay, conditions: genetic background: doa10 deletion; temperature: 30 C

| Sequence | protein stability index |
| --- | --- |
| FCSLLVLLFFGV | 0.323 ± 0.025 |
| FELSVSVFQSVV | 0.409 ± 0.048 |
| FERVEYEVLGIG | 0.395 ± 0.012 |
| FFASAAVHLVTC | 0.312 ± 0.0063 |
| FFLLLVGFSVLG | 0.224 ± 0.024 |
| FFLLTCFLLPSV | 0.328 ± 0.013 |
| FFLSFRLFSILL | 0.412 ± 0.027 |
| FFLVILSWWVGE | 0.185 ± 0.0019 |
| FFMLWCRVLLRL | 0.18536 ± 0.00012 |
| FFVFPFGLLFLS | 0.2525 ± 0.0007 |
| FFVKGFRLLVFQ | 0.461 ± 0.019 |
| FIGVLVYICREG | 0.187 ± 0.0062 |
| FITFLVFVGFFL | 0.263 ± 0.0094 |
| FKKIKGKIEKKN | 0.339 ± 0.061 |
| FKWVSRIRLLDA | 0.24 ± 0.028 |
| FKYRVPLVGVVK | 0.203 ± 0.018 |
| FLDYLLFIFFFF | 0.464 ± 0.0094 |
| FLFQYLCIISSL | 0.0866 ± 0.028 |
| FLGPMRVLVSSV | 0.401 ± 0.015 |
| FLLCRVFVLLRS | 0.1414 ± 0.0013 |
| FLLPWLRPVFFF | 0.219 ± 0.0046 |
| FLLVGLLIVGCG | 0.166 ± 0.025 |
| FLSRVVLVVLLV | 0.196 ± 0.015 |
| FLVIILFFLYMR | 0.398 ± 0.017 |
| FLYSVLLICKFI | 0.118 ± 0.016 |
| FMANRYICQKTL | 0.0893 ± 0.023 |

| Sequence | protein stability index |
| --- | --- |
| FPCRNFMVFFCF | 0.211 ± 0.0036 |
| FPFPLSSFLLLY | 0.415 ± 0.028 |
| FRSMFLFLNLLF | 0.559 ± 0.015 |
| FSFEGVLVPLLV | 0.249 ± 0.0058 |
| FSFFLYFFLLLF | 0.392 ± 0.032 |
| FSGRYFLLFRFL | 0.083 ± 0.015 |
| FSLLTWPFVFLV | 0.0816 ± 0.015 |
| FVCWGSLILCGG | 0.1516 ± 0.00087 |
| FVFAMSECIVLS | 0.269 ± 0.0044 |
| FVLWLIYVDLFF | 0.181 ± 0.019 |
| FVSHRRFSLFLY | 0.124 ± 0.0019 |
| FVVLVFMLGSVC | 0.234 ± 0.0062 |
| FVVVGLGLLCLA | 0.257 ± 0.015 |
| FVWVVRMLVFVP | 0.165 ± 0.008 |
| FWHGRCPGLYLV | 0.163 ± 0.009 |
| FYIRFYVYSWLF | 0.278 ± 0.0083 |
| FYLSSCFLFLRF | 0.62 ± 0.04 |
| GAVRRWGGVSFV | 0.662 ± 0.028 |
| GDLEFCCLIIVL | 0.27 ± 0.042 |
| GELPGELYKFWL | 0.671 ± 0.024 |
| GFFLLSFLFFVR | 0.234 ± 0.02 |
| GFGDKVPWRWVI | 0.124 ± 0.01 |
| GFSVFSHSVWVR | 0.437 ± 0.016 |
| GGICVVAYWRLA | 0.0948 ± 0.013 |
| GGMGLWCCVSVG | 0.513 ± 0.015 |
| GGRSLYAILCAV | 0.166 ± 0.021 |

| Sequence | protein stability index |
| --- | --- |
| GGSLWLVHLKTI | 0.118 ± 0.026 |
| GGTFWDGLVLVH | 0.274 ± 0.013 |
| GGYGAGLRSPLF | 0.664 ± 0.014 |
| GINHLSLKLRLF | 0.109 ± 0.037 |
| GIVSGEGAVGVG | 0.488 ± 0.022 |
| GIVYFDQWISVS | 0.321 ± 0.0069 |
| GLACNPQLLRWT | 0.665 ± 0.035 |
| GLFGFASPPPPS | 0.6784 ± 0.0035 |
| GLLAEPALLLLS | 0.604 ± 0.037 |
| GLLLLGIRLKWG | 0.157 ± 0.014 |
| GLLLRLRNLFCM | 0.387 ± 0.026 |
| GLVVVVRLQYSP | 0.27482 ± 1.4e-06 |
| GLYFFVVRIFKV | 0.167 ± 0.0056 |
| GPGTWLFCFVRF | 0.475 ± 0.017 |
| GQFFRCWRRRLC | 0.145 ± 0.019 |
| GRGLRVCWVWSG | 0.147 ± 0.013 |
| GRHRRIRYVKTS | 0.146 ± 0.024 |
| GSLFANYNLKLF | 0.108 ± 0.017 |
| GSVHLTKERHLV | 0.207 ± 0.0061 |
| GVAILFTFFRLL | 0.0564 ± 0.016 |
| GVGHAWHYFCVC | 0.197 ± 0.017 |
| GVLIFLSFQPIA | 0.3783 ± 0.0017 |
| GVLRMAPGRVMC | 0.159 ± 0.02 |
| GVQFSVKWVKLG | 0.106 ± 0.011 |
| GVSLQLHVAVLI | 0.275 ± 0.036 |
| GVSLRVFVVSVC | 0.108 ± 0.005 |
